Experimental data: article PMC12081870 (Communications Biology, 2025)

Assay: 15N NMR relaxation (T1, T2, NOE) of Sla1 SH3#1&2
Type: physicochemical, Saccharomyces cerevisiae
Design: Time Constant (T2) / T1 / T2: unit not given here
Settings: fit A exp(-Bx), 11 peaks
Excerpt: Fig. 2 A structural analysis of Sla1 SH3 domains 1 and 2. A The predicted interface between the first two SH3 domains of Sla1 as modelled using Alphafold. SH3#1 is shown in light green and SH3#2 is shown in cyan. Residues predicted to form hydrogen bonds using the Pymol search function are shown as sticks and labelled with their respective residue numbers. Dashed black lines indicate interactions. The red line in the structure indicates residues 67–70 in the hinge between the SH3 domains; the magenta loop indicates residues 52–54. B Assignment of the ^1H ^15N HSQC spectrum of Sla1 SH3 domains 1 and 2. C^15N relaxation data for Sla1 SH3#1&2. The linker between domains is approximately residues 67–70 (shown with red line under the trace and in A), and the mobile region 52-54 is part of a loop (shown with magenta line below the trace and in A). The correlation time of 8.5 ns (derived from the trimmed ^15N T1/T2 ratio), matches that calculated for a rigid two-domain structure rather than two independent domains (8.8 and 4.5 ns, respectively).
To investigate further, we purified ^15N, ^13C labelled Sla1 SH3#1&2 and analysed using NMR. A full assignment was obtained (Fig. 2B) which confirmed the Alphafold structure. An important aspect when considering the function of tandem domains is the level of rigidity or flexibility between the domains. […] NMR was used to determine relaxation parameters (^15N R1, R2 and NOE) of ^15N-labelled SH3#1-2 (Fig. 2B). […] The structural unity of the two-domain structure explains why attempts to study SH3#2 alone were unsuccessful.
Experiments were carried out on Bruker DRX-600 and DRX-800 spectrometers fitted with cryoprobes. SH3 domains 1 and 2 were assigned using a standard set of HNCA/HN(CO)CA, HNCO/HN(CA)CO and CBCAHN/CBCA(CO)HN 3D spectra. The assignment has been deposited at BioMagResBank, with code 52650. SH3 domain-3 was assigned by comparison to data provided by Prof Ishwar Radhakrishnan (Northwestern University) for the same domain although with different residues at both ends. Titrations were conducted with three peptides (GenScript Biotech, UK) comprising the three PP motifs (Fig. 3A): p1 […] (residues 318–339); p2 […] (residues 330–361); and p3 […] (residues 375–397). Peptide solutions were prepared as concentrated stock solutions in the same buffer at the same pH and added stepwise to protein solutions. Shift changes were analysed by picking peaks in Felix (Felix NMR Inc, San Diego, CA), which were downloaded to text files and for determining Kd were analysed using Levenberg-Marquardt least squares fitting to the standard quadratic equation[63]. Analysis of the ^15N relaxation data was carried using CCPN Analysis[64].

B1: Sla1 SH3#1-2: SH3#1-2 (aa 5-131), tandem domains; sequence in b253 (protein)
chain: LGIYRAVYAYEPQTPEELAIQEDDLLYLLQKSDIDDWWTVKKRVIGSDSEEPVGLVPSTYIEEAPVLKKVRAIYDYEQVQNADEELTFHENDVFDVFDDKDADWLLVKSTVSNEFGFIPGNYVEPEN
modifications: 15N-labelled (NMR only); left off: GST, end not stated, cleaved
- Time Constant (T2) (residue 39, 39AspH/39AspN): 104.622
- Time Constant (T2) (residue 40, 40AspH/40AspN): 92.3559
- Time Constant (T2) (residue 41, 41TrpH/41TrpN): 105.38
- Time Constant (T2) (residue 42, 42TrpH/42TrpN): 87.941
- Time Constant (T2) (residue 43, 43ThrH/43ThrN): 96.7782
- Time Constant (T2) (residue 44, 44ValH/44ValN): 79.239
- Time Constant (T2) (residue 45, 45LysH/45LysN): 89.2928
- Time Constant (T2) (residue 46, 46LysH/46LysN): 79.9381
- Time Constant (T2) (residue 47, 47ArgH/47ArgN): 96.0563
- Time Constant (T2) (residue 48, 48ValH/48ValN): 80.6125
- Time Constant (T2) (residue 49, 49IleH/49IleN): 93.7827
- Time Constant (T2) (residue 50, 50GlyH/50GlyN): 115.88
- Time Constant (T2) (residue 51, 51SerH/51SerN): 86.3946
- Time Constant (T2) (residue 52, 52AspH/52AspN): 168.141
- Time Constant (T2) (residue 53, 53SerH/53SerN): 144.016
- Time Constant (T2) (residue 54, 54GluH/54GluN): 154.977
- Time Constant (T2) (residue 55, 55GluH/55GluN): 101.598
- Time Constant (T2) (residue 57, 57ValH/57ValN): 100.05
- Time Constant (T2) (residue 58, 58GlyH/58GlyN): 89.0014
- Time Constant (T2) (residue 59, 59LeuH/59LeuN): 85.278
- Time Constant (T2) (residue 60, 60ValH/60ValN): 98.7206
- Time Constant (T2) (residue 62, 62SerH/62SerN): 97.5945
- Time Constant (T2) (residue 63, 63ThrH/63ThrN): 81.7496
- Time Constant (T2) (residue 64, 64TyrH/64TyrN): 104.147
- Time Constant (T2) (residue 65, 65IleH/65IleN): 90.7515
- Time Constant (T2) (residue 66, 66GluH/66GluN): 88.572
- Time Constant (T2) (residue 67, 67GluH/67GluN): 102.479
- Time Constant (T2) (residue 68, 68AlaH/68AlaN): 84.1741
- Time Constant (T2) (residue 70, 70ValH/70ValN): 100.257
- Time Constant (T2) (residue 71, 71LeuH/71LeuN): 80.9555
- Time Constant (T2) (residue 72, 72LysH/72LysN): 97.8301
- Time Constant (T2) (residue 73, 73LysH/73LysN): 97.0107
- Time Constant (T2) (residue 74, 74ValH/74ValN): 95.1713
- Time Constant (T2) (residue 75, 75ArgH/75ArgN): 95.2306
- Time Constant (T2) (residue 76, 76AlaH/76AlaN): 79.2788
- Time Constant (T2) (residue 77, 77IleH/77IleN): 85.3516
- Time Constant (T2) (residue 78, 78TyrH/78TyrN): 77.7575
- Time Constant (T2) (residue 79, 79AspH/79AspN): 86.8514
- Time Constant (T2) (residue 80, 80TyrH/80TyrN): 102.25
- Time Constant (T2) (residue 81, 81GluH/81GluN): 91.1679
- Time Constant (T2) (residue 82, 82GlnH/82GlnN): 103.776
- Time Constant (T2) (residue 83, 83ValH/83ValN): 96.58
- Time Constant (T2) (residue 84, 84GlnH/84GlnN): 115.172
- Time Constant (T2) (residue 85, 85AsnH/85AsnN): 109.146
- Time Constant (T2) (residue 86, 86AlaH/86AlaN): 101.454
- Time Constant (T2) (residue 87, 87AspH/87AspN): 93.3182
- Time Constant (T2) (residue 88, 88GluH/88GluN): 94.5093
- Time Constant (T2) (residue 89, 89GluH/89GluN): 99.1662
- Time Constant (T2) (residue 90, 90LeuH/90LeuN): 96.3149
- Time Constant (T2) (residue 91, 91ThrH/91ThrN): 78.2582
- Time Constant (T2) (residue 92, 92PheH/92PheN): 85.0538
- Time Constant (T2) (residue 93, 93HisH/93HisN): 82.1244
- Time Constant (T2) (residue 94, 94GluH/94GluN): 97.249
- Time Constant (T2) (residue 95, 95AsnH/95AsnN): 98.0824
- Time Constant (T2) (residue 96, 96AspH/96AspN): 93.6871
- Time Constant (T2) (residue 97, 97ValH/97ValN): 100.422
- Time Constant (T2) (residue 98, 98PheH/98PheN): 79.4419
- Time Constant (T2) (residue 99, 99AspH/99AspN): 97.6801
- Time Constant (T2) (residue 100, 100ValH/100ValN): 97.751
- Time Constant (T2) (residue 101, 101PheH/101PheN): 95.7132
- Time Constant (T2) (residue 102, 102AspH/102AspN): 87.4197
- Time Constant (T2) (residue 103, 103AspH/103AspN): 77.1058
- Time Constant (T2) (residue 104, 104LysH/104LysN): 88.8779
- Time Constant (T2) (residue 105, 105AspH/105AspN): 102.407
- Time Constant (T2) (residue 106, 106AlaH/106AlaN): 137.978
- Time Constant (T2) (residue 107, 107AspH/107AspN): 99.1634
- Time Constant (T2) (residue 108, 108TrpH/108TrpN): 105.531
- Time Constant (T2) (residue 109, 109LeuH/109LeuN): 92.4282
- Time Constant (T2) (residue 110, 110LeuH/110LeuN): 99.3469
- Time Constant (T2) (residue 111, 111ValH/111ValN): 90.5694
- Time Constant (T2) (residue 112, 112LysH/112LysN): 92.6618
- Time Constant (T2) (residue 113, 113SerH/113SerN): 88.7102
- Time Constant (T2) (residue 114, 114ThrH/114ThrN): 88.1188
- Time Constant (T2) (residue 115, 115ValH/115ValN): 99.4179
- Time Constant (T2) (residue 116, 116SerH/116SerN): 105.651
- Time Constant (T2) (residue 117, 117AsnH/117AsnN): 79.9936
- Time Constant (T2) (residue 118, 118GluH/118GluN): 87.975
- Time Constant (T2) (residue 119, 119PheH/119PheN): 95.7684
- Time Constant (T2) (residue 120, 120GlyH/120GlyN): 81.3349
- Time Constant (T2) (residue 121, 121PheH/121PheN): 97.0012
- Time Constant (T2) (residue 122, 122IleH/122IleN): 86.8543
